Data: article PMC8631008 (FEBS letters, 2021)

Molecular target: T1, Pleiotrophin, wild type (mature, residues 1 to 136) (human, UniProt P21246 33-168)
T1 sequence (looked up): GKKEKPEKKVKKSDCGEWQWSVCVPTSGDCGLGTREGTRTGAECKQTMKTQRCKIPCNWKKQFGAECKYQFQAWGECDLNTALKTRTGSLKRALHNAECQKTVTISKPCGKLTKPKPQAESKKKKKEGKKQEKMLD
Test: NMR titration

GGGEDGDTDDDGDDDDDDRGSDGLSIHK [PTPRZ peptide (residues G1414 to K1441 of receptor type protein tyrosine phosphatase ζ)] gave a Kd of roughly 30 µM.
